Test results taken from patent US20050049403A1 (CAMBRIDGE ANTIBODY TECHNOLOGY, published 2005).
Each block holds one binder with its values, some of them ahead of it.

Experiments:
recombinant human TGFβ2 [1] = biological target: T1, recombinant human TGFβ2 (human, UniProt P61812 303-414); test: BIACore, antigen on the chip
T1 construct: mature; also called TGFbeta2; rhTGFβ2
T1 sequence (looked up): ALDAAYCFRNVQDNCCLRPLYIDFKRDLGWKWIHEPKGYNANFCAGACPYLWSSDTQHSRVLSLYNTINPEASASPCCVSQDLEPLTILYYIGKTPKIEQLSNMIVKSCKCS

recombinant human TGFβ1 [2] = biological target: T2, recombinant human TGFβ1 (human, UniProt P01137 279-390); test: BIACore, method of Karlsson et al.
T2 construct: mature; also called TGFbeta1
T2 sequence (P01137 279-390 limits assumed): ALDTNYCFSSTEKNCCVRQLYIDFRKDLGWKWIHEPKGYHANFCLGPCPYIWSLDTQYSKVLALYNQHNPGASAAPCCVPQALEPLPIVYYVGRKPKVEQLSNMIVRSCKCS

recombinant human TGFβ1 [3] = biological target: T2, recombinant human TGFβ1; test: radioreceptor assay, inhibition of 125I-TGFβ1 binding to A549 cells; concentration of antibody combining sites
Description: (§1) Cells are seeded at 1-2×10^5 cells/ml/well into the wells of 24-well cluster plates and grown for 24 h in serum-free DMEM. Cell monlayers are washed twice with serum-free DMEM and 0.5 ml binding medium (DMEM/Hams F12 (Sigma D-6421) containing 0.1% (v/v) BSA added to each well.
(§2) Aliqouts of ¹²⁵I-TGFβ1 or TGFβ2 (70-90 TBq/mmol; Amersham International) at 20 pM are preincubated with antibody in binding medium at room temperature for 1 h. Duplicate samples of 0.5 ml of TGFβ/antibody mixtures are then added to the cell monlayers and are incubated at 37° C. for 1-2 h. Control wells contain TGFβ only. Unbound TGFβ is removed by washing 4 times with Hank's balanced salt solution containing 0.1% BSA. Cells are solubilised in 0.8 ml 25 mM Tris HCl pH 7.5, 10% glycerol, 1% Triton X-100 at room temperature for 20 min. The contents of each well are removed and ¹²⁵I measured in a gamma counter.

[4] = biological target: lysozyme (coated onto a BIACore sensor chip) (Gallus gallus (Chicken), UniProt P00698 19-147); test: BIACore, lysozyme coated on the sensor chip
Sequence of lysozyme (coated onto a BIACore sensor chip) (P00698 19-147 limits assumed): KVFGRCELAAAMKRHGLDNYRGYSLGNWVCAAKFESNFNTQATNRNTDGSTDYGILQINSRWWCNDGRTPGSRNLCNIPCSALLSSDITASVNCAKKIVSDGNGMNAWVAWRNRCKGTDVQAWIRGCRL

recombinant human TGFβ2 [5] = biological target: T1, recombinant human TGFβ2; test: cell-based or functional assay
TGFβ3 [6] = biological target: T3, TGFβ3 (UniProt P10600 301-412); test: cell-based or functional assay
T3 sequence (looked up): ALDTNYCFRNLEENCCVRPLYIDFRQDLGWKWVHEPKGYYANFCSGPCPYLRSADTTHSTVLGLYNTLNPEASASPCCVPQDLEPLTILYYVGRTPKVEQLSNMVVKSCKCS

recombinant human TGFβ2 [7] = biological target: T1, recombinant human TGFβ2; test: BIACore, method of Karlsson et al.
recombinant human TGFβ2 [8] = biological target: T1, recombinant human TGFβ2; test: radioreceptor assay, inhibition of 125I-TGFβ2 binding to A549 cells; concentration of antibody combining sites
Description: as §1, §2

recombinant human TGFβ1 [9] = biological target: T2, recombinant human TGFβ1; test: BIACore, antigen coated on the sensor chip
TGFβ3 [10] = biological target: T3, TGFβ3; test: BIACore, antigen coated on the sensor chip
recombinant human TGFβ2 [11] = biological target: T1, recombinant human TGFβ2; test: cell-based or functional assay; remark: listed apart in the source
recombinant human TGFβ1 [12] = biological target: T2, recombinant human TGFβ1; test: specificity ELISA, TGFβ coated at 0.2 µg/ml
Description: Clones identified as binding TGFβ-1 rather an uncoated well, as described above, were further analysed for fine specificity. […] Microtitre plate wells were coated with 50 μl of either 0.2 μg/ml TGFβ1, 0.2 μg/ml TGFβ-2, 10 μg/ml bovine serum albumin (BSA) or PBS (the uncoated well). After preblocking both the phage (or soluble scFv) and the microtitre plates, 50 μl blocked phage (or soluble scFv) from each clone was added to a well coated with either TGFβ-1, TGFβ-2, BSA or an uncoated well. As above, alkaline phosphatse activity was visualised using either the chromagenic substrate pNPP (Sigma) or the Ampak system (Dako). […]

fold higher dissociation constant compared to TGFβ1 (recombinant human TGFβ2 [1]): ≥ 10 fold
Kd (recombinant human TGFβ1 [2]): ~5 nM
IC50 (recombinant human TGFβ1 [3]): 9 nM
binding result [4]: no binding
B1: 27C1/10A6 IgG4 (antibody, V domains shown)
VH: QVQLVESGGGVVQPGRSLRLSCAASGLTFSSYDMHWVRQPPAKGLEWVAVISYDGSSKYYADSVKGRFTISRDNSKNTLYLQMNSLRAEDTAVYYCARTGEYSGYDTSGVELWGQGTTVTVSS
VL: HVILTQDPAVSVALGQTVRITCQGDSLKSYYASWYQQKPGQAPVLVIYGENSRPSGIPDRFSGSSSGNTASLTITGAQAEDEADYYCNSRDSSGTHLEVFGGGTKLTVLG
notes: Whole antibody: human gamma 4 constant region (pG4D100) and human lambda constant region (pLN10), made in CHO cells

IC50 in TF1 cell proliferation assay, 100 pM TGFβ isoform (recombinant human TGFβ2 [5]): 12 nM
IC50 in TF1 neutralisation assay, 6H1 IgG4 from a CHO cell line (recombinant human TGFβ2 [5]): 15 nM
IC50 in TF1 cell proliferation assay, 100 pM TGFβ isoform (TGFβ3 [6]): ~20 nM
Kd (recombinant human TGFβ2 [7]): ~2 nM
IC50 (recombinant human TGFβ2 [8]): ~10 nM
binding result (recombinant human TGFβ1 [9]): no binding
binding result (TGFβ3 [10]): no binding
I.C.50 in TF1 assay (neutralisation of TGFβ2 inhibition of TF1 cell proliferation) (recombinant human TGFβ2 [11]): 100 nM
B2: 6H1 IgG4 (antibody, V domains shown)
VH: EVQLVESGGGVVQPGRSLRLSCAASGFTFSSYGMHWVRQAPGKGLEWVAVIWYDGSNKYYADSVKGRFTISRDNSKNTLYLQMDSLRAEDTAVYYCGRTLESSLWGQGTLVTVSS
VL: DVVMTQSPSSLSASVGDRVTITCRASQGISNYLAWYQQKPGKAPKLLIYKASTLESGVPSRFSGSGSGTEFTLTISSLQPEDFATYYCQQSYSTPRTFGQGTKVDIKR
notes: Whole antibody: human gamma 4 and human kappa constant regions (pG4D100, pKN100), CHO cells

ELISA signal, fold over the signal on TGFβ2 and TGFβ3 (recombinant human TGFβ1 [12]): ≥ 5 fold
B3: 10A6 scFv (scFv)
scFv: QVQLVESGGGVVQPGRSLRLSCAASGFTFSSYGMHWVRQAPGKGLEWVAVISYDGSNKYYADSVKGRFTISRDNSKNTLYLQMNSLRAEDTAVYYCAKTGEYSGYDSSGVDVWGKGTTVTVSSGGGGSGGGGSGGGGSHVILTQDPAVSVALGQTVRITCQGDSLKSYYASWYQQKPGQAPVLVIYGENSRPSGIPDRFSGSSSGNTASLTITGAQAEDEADYYCNSRDSSGTHLEVFGGGTKLTVLG
notes: Light chain shuffle of 1-B2
